Patent publication US9289506B2, “Surface binding of nanoparticle based drug delivery to tissue” (Massachusetts Institute of Technology, priority 2013, dated 2016)

Tests used:
[1] = Net charge of Avidin estimated using Donnan equilibrium; format: physicochemical; settings: assuming uptake entirely due to Donnan partitioning, no binding
From the text: However, it is not certain whether the effective charge sensed during transport and uptake would include all these residues, or whether certain residues may be internal and less accessible to charge-charge interactions within the cartilage extracellular matrix. In addition, the unknown extent of Avidin glycosylation may contribute additional net negative charge that would decrease the total net charge. However, this estimate assumes that all such residues are ionized in aqueous solution and that none of these residues are internal (buried) and thereby inaccessible to charge-charge interactions within the cartilage matrix. Furthermore, this estimate neglects the effects of Avidin glycosylation which could add additional negative charge groups to the total sum. […]
[formula] (Byun et al., Arch Biochem Biophys, 2010) was measured to be, −0.13 M. Rearranging Eq. (12) gives: […]
Donnan theory (Grodzinsky et al., New York: Garland Science, 2011) is based on the assumptions that (1) all freely moving charged species (i.e., Avidin and bath ions) will partition into a charged tissue according to Boltzmann statistics and, (2) the net charge in the tissue is zero by electroneutrality (i.e., the sum of the tissue fixed charge density and mobile carrier concentrations). By fitting the Donnan theory to the equilibrium uptake data of FIG. 12A, the effective net charge of Avidin was calculated to be +6.2. […]

[2] = dilute solution of DI water at pH 5; cited from earlier work
[3] = Intra-articular injection of Avidin or Neutravidin in rat knee joints: penetration, uptake and retention in joint tissues; settings: for mean concentration in articular cartilage: rat, i.a. injection
Procedure: Intra-articular (i.a.) injections of 50 μl of 50 μM Avidin (pI 10.5, 66 kDa, diameter ˜7 nm) or Neutravidin (neutral at pH 7, 60 kDa, diameter ˜7 nm) conjugated with Texas Red (both from Invitrogen, CA) were administered in the right knee joints of healthy 18-20 weeks old Fischer-344 rats (Charles River Laboratories). Following the injection, rat knees were flexed and extended to distribute the injected solute throughout the intra-articular space. Contralateral left knees were used as controls. Avidin injected rats were sacrificed at 4 different time points (6 h, 1 d, 4 d, 7 d) and Neutravidin injected rats were sacrificed after 1 day. The following tissue types were extracted from each joint: articular cartilage removed from the patellar groove, femoral condyle and tibial plateau using a scalpel; medial and lateral menisci; i.a. ligaments (ACL & PCL); patellar and quadriceps tendons; and femoral bone. 6 rats were used per treatment condition for a total of 30 rats. Using a digital caliper (Fisher Scientific), the joint thickness was measured before and after the injection at each time point to check for joint swelling indicating an inflammatory response to the injection.
Tissue samples extracted from the rat joints injected with Avidin-Texas Red (Excitation at 595 nm and emission at 615 nm) and sacrificed at 6 h were imaged using a confocal microscope (OLYMPUS, FluoView FV1000) at 10× magnification by taking Z stacks. Images were taken in X-Y plane, which represents the surface through which Avidin diffused. 3D images were reconstructed using Z stacking (slice thickness˜4.5 μm) and cross-sections in the X-Z plane of these 3D images were taken.
Tissue samples from all treatment conditions were then desorbed in 10×PBS for 48 h in 37° C. incubator to disrupt electrostatic interactions and release Avidin/Neutravidin into the desorption bath. […] At the end of the experiment, tissue samples were removed from the bath, lyophilized and the dry weight was measured. Fluorescence signal from desorption bath was quantified using a plate reader (Synergy HT, BioTek). […] The solute uptake was calculated as the concentration of labeled solute in the tissue samples normalized by tissue dry weight.
The half-life of Avidin was calculated by fitting an exponential curve to the experimental data:
Where, C0 is the initial and C(t) is the final Avidin concentration in tissue after time t and λ is the decay constant.

[4] = Equilibrium uptake and desorption of Avidin and NeutrAvidin in cartilage disks; format: in vitro ADME, bovine; settings: for mean uptake ratio: 24 h
From the text: Cartilage disks were harvested from the femoropatellar grooves of 1-2 week old bovine calf knee joints (obtained from Research 87, Hopkinton, Mass.) as described previously (Patwari et al., Arthritis Rheum, 2003). Briefly, cylindrical cartilage disks (3 mm or 6 mm diameter) were cored using a dermal punch and then sliced to obtain the top 1 mm of cartilage with intact superficial zone. Cartilage disks for all treatment groups were matched for depth and location along the joint surface. The disks were then pre-equilibrated in PBS (without Ca^2±/Mg^2±) supplemented with protease inhibitors (Complete Protease Cocktail tablet in 50 mL PBS, Roche Applied Science, IN) in a 37° C., 5% CO2 incubator for 24-48 h.
Equilibrium uptake of Avidin and NeutrAvidin: 3 mm diameter, 1 mm thick cartilage explants were incubated for specific times in 300 μl of known concentration (3 μM) of FITC-Avidin and FITC-NeutrAvidin, supplemented with protease inhibitors at 37° C. in a 96 well plate format. After removal from the absorption baths, the disks were rinsed, gently wiped and then incubated in 1× or 10×PBS supplemented with protease inhibitors for 24 h or longer as specified. At the end of the experiment, the surfaces of each disk were quickly blotted with Kimwipes and the wet weight was measured. The disks were then lyophilized and the dry weight was measured; the water weight was calculated from the tissue wet and dry weights. The fluorescence signal in the absorption and desorption baths was quantified using a plate reader (1400 Wallace Victor, PerkinElmer, MA); the solute content inside the cartilage disk was determined from the difference between the fluorescence reading of the absorption/desorption baths before and after incubation. […] The solute uptake ratio was calculated as the concentration of the FITC-solute in the cartilage (per intra-tissue water weight) normalized to the concentration of FITC-solute in the equilibration bath.

[5] = One-way diffusion of solutes into cartilage half disks in transport chamber, confocal microscopy imaging; format: in vitro ADME, bovine; settings: normal cartilage
From the text: Solute Types: Two types of 15 nm diameter (MW˜300 kDa) Quantum Dots (QD) were used: (i) positively charged, and (ii) charge-neutral; same concentration. Transport of FITC (MW˜300 Da, diam˜0.9 nm) and dextrans (Dex) conjugated with FITC (Sigma Aldrich) of different MW (˜8 kDa, diam˜4.3 nm; ˜40 kDa, diam˜10 nm) were also investigated.
Transport Studies: A special PMMA transparent transport chamber was designed to allow diffusion of solutes into only one side (superficial zone) of the cartilage disk. The chamber was treated with Casein to block non-specific binding of solutes to chamber surfaces. The equilibrated cartilage disks were then cut into halves and placed in the middle of the ‘slot chambers’ of the fixture. The chamber side facing the superficial zone was filled with ˜45 μl of solute-PBS solution; the other side was filled with 1×PBS alone. […]
Using a scalpel, a slice (100-200 μm thick) was then cut from the center of each disk (FIG. 1B). […] Appropriate filters were chosen to eliminate auto-fluorescence of cartilage at the settings used for imaging. […] To ensure proper image comparison, solute concentrations were chosen such that the FITC concentration in each solution was identical, thereby giving equal fluorescence intensities.

[6] = Net charge of Avidin estimated from reported electrokinetic zeta potential; format: physicochemical; settings: Grahame equation from zeta potential, spherical shape diameter ~7 nm
From the text: The zeta potential of Avidin molecules in dilute solution of DI water at pH 5 has been reported to be 10 mV (Dougherty et al., Langmuir, 2009). Using Grahame Equation of electrokinetics (Grodzinsky et al., New York: Garland Science, 2011) that related zeta potential to particle surface charge density, and assuming that Avidin attains a spherical shape (diameter ˜7 nm), the zeta potential of 10 mV corresponds to an effective net molecular charge of ˜+7.3.

For “Avidin: positively charged globular glycosylated tetrameric protein, pI 10.5, 66 kDa, diameter ~7 nm (Invitrogen); SEQ ID NO 1”, the “upper estimate of effective net charge” value [1] is given as “+13 to +14”, the zeta potential [2] is given as 10 mV and the “knee joint inflammation (swelling, stiffness) after i.a. injection” value ([3]; 6 h, 1 d, 4 d and 7 d) is given as “did not present any signs of swelling or joint stiffness”. For the same substance, the “concentration in articular cartilage as percent of 24 h value” ([3]; 4 days) was 10.3%, the “concentration in articular cartilage as percent of 24 h value” ([3]; 7 days) was 4.1% and the Half-life ([3]; Cartilage) was 29.0 h. For the same substance, the Half-life ([3]; Ligament) was 25.7 h, the Half-life ([3]; Meniscus) was 21.4 h and the Half-life ([3]; Patella Tendon) was 16.9 h. For the same substance, the Half-life ([3]; Quadriceps Tendon) was 27.2 h, the “detection in the femoral bone” value ([3]; any time point) was “Neither Avidin nor Neutravidin was detected” and the “time to diffuse through the full thickness of joint tissues after i.a. injection” value ([3]; cartilage, menisci, ligaments, tendons, confocal) was ≤ 6 h. The “dwell time inside the joint” value ([3]; rat knee) was 7 days, the “mean concentration in articular cartilage” value (shortened to “mean concentration”) ([3]; 6 h) was 4.7 μg/mg tissue dry weight and the “mean concentration” value ([3]; 24 h) was 3.3 µg/mg. For the same substance, the “mean concentration” value ([3]; 4 days) was 0.34 µg/mg, the “mean concentration” value ([3]; 7 days) was 0.13 µg/mg and the “percent of absorbed solute diffused out of the cartilage” value ([4]; 10×PBS, within 24 h) was ~69%. For the same substance, the mean uptake ratio ([4]; 40% GAG-depleted cartilage (chondroitinase-ABC)) was 24, the “higher uptake of Avidin compared to NeutrAvidin” value ([4]; normal cartilage) was “greater than 400 times” and the mean uptake ratio ([4]; normal cartilage) was ~183. The “time to penetrate the full thickness (1 mm) of the cartilage explant” value [5] was ≤ 24 h and the “effective net molecular charge” value [6] was “~+7.3”.
